Experimental data taken from patent publication US20170290877A1.
Non-standard residues stand in square brackets, D forms with d. No end group written: not given here.

Biological target: JNK in primary mouse cortical neurons
Test: cell-based or functional assay

## [dD][dQ][dS][dR][dP][dV][dQ][dP][dF][dL][dN][dL][dT][dT][dP][dR][dK][dP][dR][dP][dP][dR][dR][dR][dQ][dR][dR][dK][dK][dR]G [D-TAT-IB1(s)]
  JNK activation in Aβ42-stressed PKR-/- neurons (immunoblot), XG-102 at 10 µM: -35%
  JNK activity as ratio pJNK/JNK after 1 mM H2O2 (immunoblot), XG-102 at 10 µM (% of controls): 45
  c-Jun phosphorylation in Aβ42-stressed WT neurons (immunoblot), XG-102 at 10 µM: -74%
